Source: the supplement of paper PMC9876800

Tested on: peptide library, one residue held at a place counted from the S/T acceptor
Test: relative phosphorylation of the sub-library (ratio to the mean residue at this position); higher = residue favoured
Conditions: human
In short: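 Each biotinylated degenerate peptide sub-library fixed one residue at one position around a central Ser/Thr and was incubated with a purified recombinant kinase, a human or orthologue construct, in 384-well plates. The 90 min reactions, under kinase-specific conditions, contained 50 μM peptide and 50 μM ATP spiked with γ-32P-ATP. Phosphorylation was read by phosphorimaging spots on streptavidin membranes and quantifying them by densitometry. Relative sub-library phosphorylation expresses each value as a ratio to the mean residue at that position.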

MAPK1, construct: Full length, sequence (P28482 whole entry, looked up): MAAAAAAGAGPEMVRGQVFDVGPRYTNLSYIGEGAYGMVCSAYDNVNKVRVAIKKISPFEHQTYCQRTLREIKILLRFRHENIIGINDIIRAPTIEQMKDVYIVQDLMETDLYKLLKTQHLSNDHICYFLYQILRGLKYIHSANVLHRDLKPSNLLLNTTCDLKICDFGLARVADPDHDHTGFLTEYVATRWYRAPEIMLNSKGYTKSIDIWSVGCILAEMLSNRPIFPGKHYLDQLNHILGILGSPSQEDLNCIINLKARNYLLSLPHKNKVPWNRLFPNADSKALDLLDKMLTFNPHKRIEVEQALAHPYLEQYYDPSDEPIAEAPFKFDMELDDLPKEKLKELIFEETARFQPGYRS
MAP4K1, construct: Full length, sequence (Q92918 whole entry, looked up): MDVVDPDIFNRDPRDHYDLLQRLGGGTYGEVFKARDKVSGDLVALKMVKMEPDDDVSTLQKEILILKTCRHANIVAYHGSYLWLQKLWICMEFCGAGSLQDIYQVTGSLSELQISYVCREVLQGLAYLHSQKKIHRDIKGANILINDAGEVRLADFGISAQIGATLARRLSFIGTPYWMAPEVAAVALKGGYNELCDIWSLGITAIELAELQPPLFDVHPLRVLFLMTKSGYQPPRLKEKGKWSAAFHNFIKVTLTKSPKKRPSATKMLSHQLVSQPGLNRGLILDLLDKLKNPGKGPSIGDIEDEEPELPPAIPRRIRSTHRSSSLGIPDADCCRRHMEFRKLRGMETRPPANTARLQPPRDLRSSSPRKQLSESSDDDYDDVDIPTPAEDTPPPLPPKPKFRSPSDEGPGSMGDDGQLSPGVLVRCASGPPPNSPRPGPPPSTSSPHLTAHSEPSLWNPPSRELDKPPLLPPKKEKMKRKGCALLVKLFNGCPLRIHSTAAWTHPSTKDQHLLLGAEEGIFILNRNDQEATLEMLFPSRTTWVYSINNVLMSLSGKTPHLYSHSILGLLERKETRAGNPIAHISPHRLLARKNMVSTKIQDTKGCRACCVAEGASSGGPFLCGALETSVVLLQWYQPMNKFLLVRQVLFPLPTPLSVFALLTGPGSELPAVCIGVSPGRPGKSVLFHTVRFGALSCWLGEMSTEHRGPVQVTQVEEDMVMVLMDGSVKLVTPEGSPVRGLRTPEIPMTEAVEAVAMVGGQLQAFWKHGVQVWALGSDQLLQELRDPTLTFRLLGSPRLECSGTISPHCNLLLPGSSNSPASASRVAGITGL
BMPR1B, construct: aa149-end, sequence (O00238 149-502, looked up): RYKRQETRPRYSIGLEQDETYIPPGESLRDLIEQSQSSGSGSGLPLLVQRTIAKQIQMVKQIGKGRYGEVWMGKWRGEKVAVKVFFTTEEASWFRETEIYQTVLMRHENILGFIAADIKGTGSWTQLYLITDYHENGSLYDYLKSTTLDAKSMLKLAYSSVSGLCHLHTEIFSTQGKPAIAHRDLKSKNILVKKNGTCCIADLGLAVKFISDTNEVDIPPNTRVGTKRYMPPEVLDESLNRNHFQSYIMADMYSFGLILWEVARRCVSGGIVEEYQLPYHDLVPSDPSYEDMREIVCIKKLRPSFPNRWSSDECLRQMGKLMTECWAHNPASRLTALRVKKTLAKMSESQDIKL
PASK, construct: aa949-1323, sequence (Q96RG2 949-1323, looked up): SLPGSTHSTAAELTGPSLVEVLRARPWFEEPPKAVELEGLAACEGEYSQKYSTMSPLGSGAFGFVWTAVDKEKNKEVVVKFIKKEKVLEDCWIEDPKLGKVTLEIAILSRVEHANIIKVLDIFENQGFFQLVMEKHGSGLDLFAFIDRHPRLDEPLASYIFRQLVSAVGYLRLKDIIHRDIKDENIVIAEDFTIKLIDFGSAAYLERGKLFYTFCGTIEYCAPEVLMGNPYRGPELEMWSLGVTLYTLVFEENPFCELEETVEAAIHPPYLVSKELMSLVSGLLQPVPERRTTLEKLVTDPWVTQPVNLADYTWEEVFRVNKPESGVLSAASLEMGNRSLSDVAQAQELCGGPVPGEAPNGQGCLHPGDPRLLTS

MAP4K1, construct: Full length (from UniProt Q92918)
relative phosphorylation
Conditions	at +1	at +2	at +3	at +4	at -1	at -2	at -3	at -4	at -5
A fixed	0.465	0.82	0.882	0.928	0.991	1.1	0.946	0.951	1.07
D fixed	0.192	0.786	0.471	0.756	0.585	0.362	0.52	0.653	0.679
E fixed	0.199	0.706	0.454	0.629	0.441	0.302	0.487	0.699	0.613
F fixed	1.23	0.581	0.893	0.879	0.987	1.36	0.908	1.14	1.11
G fixed	0.58	0.957	0.933	1.13	1.79	1.06	1.21	1.29	1.15
H fixed	0.575	1.13	1.04	1.08	1.37	1.36	1.3	1.08	1.07
I fixed	1.91	0.442	0.571	0.806	0.342	0.646	0.545	0.706	0.763
K fixed	0.56	2.51	1.8	1.65	1.24	1.11	1.93	1.26	1.49
L fixed	3.52	0.604	0.724	0.863	1.17	0.667	0.694	0.798	0.746
M fixed	2.94	0.695	0.763	0.861	1.26	0.794	0.823	0.896	0.934
N fixed	0.442	0.974	0.925	0.978	1.3	0.931	0.928	0.849	0.88
P fixed	0.396	1.17	1.13	1.02	0.534	0.62	0.766	0.955	1.09
Q fixed	0.5	0.869	0.837	0.958	0.745	0.679	0.904	0.888	0.83
R fixed	0.573	2.9	2.98	1.62	1.62	1.6	2.01	1.39	1.34
V fixed	0.584	0.521	0.654	0.815	0.438	0.798	0.634	0.828	0.895
W fixed	1.45	0.627	0.991	1.14	0.909	1.51	1.28	1.37	1.15
Y fixed	0.877	0.706	0.942	0.887	1.27	2.1	1.11	1.24	1.2
pThr fixed	1.32	1.33	1.14	0.786	0.699	1.1	1.22	1.25	1.32
pTyr fixed	0.373	0.593	0.669	0.602	0.86	0.653	0.977	0.948	1.04

MAPK1, construct: Full length (from UniProt P28482)
relative phosphorylation
Conditions	at +1	at +2	at +3	at +4	at -1	at -2	at -3	at -4	at -5
A fixed	0.973	0.668	0.858	0.681	0.711	0.878	1	0.906	0.914
D fixed	0.121	0.537	0.684	0.75	0.577	0.465	1.09	1.21	1.23
E fixed	0.0909	0.28	0.721	0.679	0.447	0.486	1.19	1.28	0.955
F fixed	0.427	1.43	1.46	1.18	0.906	0.58	0.839	0.886	1.02
G fixed	0.756	1.02	0.866	0.753	0.711	0.513	1.06	1.02	1.02
H fixed	0.474	1.66	1.37	1.17	1.23	0.622	1.02	1.06	1.21
I fixed	0.235	0.91	1.05	1.15	0.727	1.49	0.814	1.08	0.752
K fixed	0.472	1.6	0.821	1.55	1.59	0.547	0.723	1.01	1.07
L fixed	0.426	1.26	1.15	1	1.43	1.87	0.915	0.817	0.912
M fixed	0.4	1.16	1.13	1.11	1.35	1.35	1.07	0.993	0.812
N fixed	0.216	1.06	0.676	0.933	0.86	0.776	1.11	1.02	1.07
P fixed	10.5	0.399	1.05	0.748	0.916	3.03	1.48	0.895	0.946
Q fixed	0.289	0.785	0.682	0.96	1.25	1.1	1.15	1.09	1.03
R fixed	0.442	1.67	0.931	1.07	1.76	0.901	1.11	1.11	1.18
V fixed	0.256	0.8	0.799	0.853	0.669	1.34	0.79	0.643	0.689
W fixed	0.453	0.885	1.41	1.3	0.828	0.512	0.807	1.04	1.05
Y fixed	0.439	0.869	1.35	1.1	1.04	0.549	0.838	0.945	1.15
pThr fixed	0.432	0.683	0.642	0.847	0.381	1.05	1.2	1.18	1.16
pTyr fixed	0.517	0.404	1.01	0.861	0.351	0.691	1.31	0.918	1.18

PASK, construct: aa949-1323 (from UniProt Q96RG2)
relative phosphorylation
Conditions	at +1	at +2	at +3	at +4	at -1	at -2	at -3	at -4	at -5
A fixed	0.999	0.848	0.766	0.739	0.615	1.36	0.758	0.939	0.757
D fixed	1.04	2.11	1.66	1.65	1.2	0.778	0.63	1	0.896
E fixed	1.4	1.34	1.35	1.43	0.919	0.762	0.711	1.55	0.776
F fixed	1.07	0.829	1.14	0.825	0.491	0.814	0.565	0.779	0.72
G fixed	1.11	0.967	0.808	1.03	0.746	1.19	0.864	0.804	0.811
H fixed	1.21	1.25	1.14	1.12	0.903	1.33	0.927	1.04	2.98
I fixed	0.665	0.664	0.583	0.748	0.384	0.493	0.425	0.663	0.742
K fixed	0.944	0.698	0.956	0.853	2.22	1.42	1.34	1.39	1.33
L fixed	0.665	0.65	0.784	0.732	0.609	0.746	0.484	0.723	1.03
M fixed	0.914	0.758	0.823	0.764	0.665	0.774	0.55	0.829	0.909
N fixed	1.09	1.49	1.03	1.08	1.59	1.16	0.623	0.995	0.884
P fixed	0.623	0.796	1.2	1.41	2.89	1.54	1.83	1.3	0.66
Q fixed	0.932	1.14	0.996	1.07	1.07	1.08	0.764	1.05	0.788
R fixed	0.787	0.825	0.888	0.65	0.954	1.38	4.8	1.42	1.39
V fixed	0.854	0.71	0.591	0.668	0.447	0.638	0.433	0.68	0.625
W fixed	1.26	0.953	1.25	1.05	0.53	0.704	0.664	0.944	0.927
Y fixed	1.45	0.966	1.04	1.18	0.774	0.835	0.635	0.9	0.775
pThr fixed	3.06	2.97	2.92	2.7	1.02	1.43	1.04	1.25	1.11
pTyr fixed	2.5	2.53	3.07	2.25	1.58	1.41	1.28	1.98	1.59

BMPR1B, construct: aa149-end (from UniProt O00238)
relative phosphorylation
Conditions	at +1	at +2	at +3	at +4	at -1	at -2	at -3	at -4	at -5
A fixed	1.07	1.39	1.01	0.984	0.997	0.924	1.21	1.09	1.34
D fixed	1.83	1.33	1.58	0.977	1.64	2.17	2.03	2.24	1.67
E fixed	5.67	1.49	1.56	1.15	1.77	6.66	2.3	1.75	1.49
F fixed	0.422	0.61	0.873	1	0.771	0.382	0.596	0.674	0.73
G fixed	0.798	1.57	0.953	1.03	0.637	0.725	1.14	1.26	1.2
H fixed	0.552	0.988	0.857	0.895	0.919	0.493	0.923	0.855	0.972
I fixed	0.631	0.606	0.753	0.984	0.833	0.496	0.586	0.704	0.681
K fixed	0.404	1.04	0.655	1.14	0.73	0.386	0.69	0.818	0.938
L fixed	0.503	0.727	0.935	0.888	1.1	0.553	0.663	0.733	0.766
M fixed	0.62	0.757	0.869	0.949	1.29	0.497	0.773	0.86	0.798
N fixed	0.743	0.911	0.961	0.926	0.901	0.679	1.08	0.92	1
P fixed	0.344	1.38	1.13	1.21	0.627	0.499	0.977	0.998	1.09
Q fixed	0.676	0.809	0.945	0.981	0.965	0.702	1.07	1.01	0.839
R fixed	0.48	0.842	0.891	0.924	0.791	0.439	0.803	0.801	0.869
V fixed	1.2	0.664	0.97	0.908	1.02	0.581	0.697	0.769	0.921
W fixed	0.519	0.897	1.01	1.02	0.844	0.397	0.659	0.744	0.892
Y fixed	0.528	0.985	1.04	1.04	1.17	0.415	0.795	0.764	0.799
pThr fixed	6.15	2.16	1.11	1.13	1.03	2.23	2.34	1.67	1.35
pTyr fixed	1.18	0.924	1.3	0.928	1.8	0.801	1.81	1.51	1.41
